Experimental findings from patent publication US20050276799A1 (PDL BIOPHARMA, published 2005) are described below.

Numbering of substitutions follows the chain as printed. Names and notes keep the numbering of the source. Where two headings read alike, the source gives them in different places.

Test [1] concerns the target T1, recombinant, GPI-linked human FcRn on cell line NS0 HuFcRn (memb), clone 7-3 (human, UniProt P55899 24-297; P61769 21-119).
T1 construct: Expressed from pDL208 on the surface of NS0 cells; also called human neonatal Fc receptor; not shown: human c-myc decapeptide flanked by linker peptides, then GPI linkage signal of human decay accelerating factor (vector p)
Description: IC50 of wild-type / IC50 of this antibody, same assay.

Test [2] concerns the target T2, recombinant, GPI-linked rhesus FcRn on cell line NS0 RhFcRn, clone R-3 (rhesus, UniProt H9Z6D2 24-297; Q6V7J5 21-119, GPI-linked).
T2 construct: Expressed from pDL410 on the surface of NS0 cells; not shown: human c-myc decapeptide flanked by linker peptides, then GPI linkage signal of human decay accelerating factor (vector p)
Described as above.

The target of test [3] is T1, recombinant, GPI-linked human FcRn on …. The test is described as above. The source holds these as a separate data set.
Test [4] deals with T2, recombinant, GPI-linked rhesus FcRn on …. The description is as above. The source holds these as a separate data set.
The target of test [5] is T1, recombinant, GPI-linked human FcRn on …. Kind of test: competition FACS vs biotinylated human IgG on NS0 cells expressing human FcRn, FBB pH 6.0.
The target of test [6] is T2, recombinant, GPI-linked rhesus FcRn on …. Kind of test: competition FACS vs biotinylated human IgG on NS0 cells expressing rhesus FcRn, FBB pH 6.0.
The target of test [7] is T1, recombinant, GPI-linked human FcRn on …. Description: IC50 of wild-type / IC50 of this antibody, same assay. The source holds these as a separate data set.
The target is the same in test [8]. Kind of test: competition FACS vs biotinylated human IgG on NS0 cells expressing human FcRn, FBB pH 6.0. The source holds these as a separate data set.
Test [9] has the same target. Description: IC50 of wild-type / IC50 of this antibody, same assay. The source holds these as a separate data set.
Test [10] has the same target. Description: competition FACS vs biotinylated human IgG on NS0 cells expressing human FcRn, FBB pH 6.0. This is another data set of the same source.
Test [11] shares this target. Description: IC50 of wild-type / IC50 of this antibody, same assay. The source holds these as a separate data set.
The target is the same in test [12]. Description: competition FACS vs biotinylated human IgG on NS0 cells expressing human FcRn, FBB pH 6.0. The source holds these as a separate data set.
For test [13] the target is unchanged. Description: pH-dependent binding and release FACS on NS0 cells expressing human FcRn (FIG. 15B).

B1: Hu1D10-IgG3 wild-type (antibody)
heavy: QVQLQESGPGLVKPSETLSLTCTVSGFSLTNYGVHWVRQSPGKGLEWIGVKWSGGSTEYNAAFISRLTISKDTSKNQVSLKLNSLTAADTAVYYCARNDRYAMDYWGQGTLVTVSSASTKGPSVFPLAPCSRSTSGGTAALGCLVKDYFPEPVTVSWNSGALTSGVHTFPAVLQSSGLYSLSSVVTVPSSSLGTQTYTCNVNHKPSNTKVDKRVELKTPLGDTTHTCPRCPEPKSCDTPPPCPRCPEPKSCDTPPPCPRCPEPKSCDTPPPCPRCPAPELLGGPSVFLFPPKPKDTLMISRTPEVTCVVVDVSHEDPEVQFKWYVDGVEVHNAKTKLREEQYNSTFRVVSVLTVLHQDWLNGKEYKCKVSNKALPAPIEKTISKAKGQPREPQVYTLPPSREEMTKNQVSLTCLVKGFYPSDIAVEWESNGQPENNYNTTPPMLDSDGSFFLYSKLTVDKSRWQQGNIFSCSVMHEALHNRYTQKSLSLSPGK
light: DIQMTQSPSSLSASVGDRVTITCRASENIYSYLAWYQQKPGKAPKLLVSNAKTLAEGVPSRFSGSGSGKQFTLTISSLQPEDFATYYCQHHYGNSYPFGQGTKLEIKRTVAAPSVFIFPPSDEQLKSGTASVVCLLNNFYPREAKVQWKVDNALQSGNSQESVTEQDSKDSTYSLSSTLTLSKADYEKHKVYACEVTHQGLSSPVTKSFNRGEC
Regarding B1, the “Relative Binding” value in test [1] and in test [2] was 1 ratio in each case.

B2: Hu1D10-IgG4 T250Q/M428L (antibody)
heavy: not shown
light: B1 light
Consider B2, for which the results for the “Relative Binding” value in [3] and in test [4] were 71 ratio and 77 ratio, respectively. In addition, the IC50 came out at 1.07 µg/mL in test [5] and 1.27 µg/mL in test [6].

B3: Hu1D10-IgG4 M428L (antibody)
heavy: not shown
light: B1 light
B3: the “Relative Binding” value in test [3] and in [4] was 15 ratio throughout. The 50% inhibitory concentration (IC50) in [5] was determined as 5.03 µg/mL; in [6], 6.64 µg/mL.

B4: HuM291-IgG2M3 wild-type (visilizumab) (antibody)
heavy: QVQLVQSGAEVKKPGASVKVSCKASGYTFISYTMHWVRQAPGQGLEWMGYINPRSGYTHYNQKLKDKATLTADKSASTAYMELSSLRSEDTAVYYCARSAYYDYDGFAYWGQGTLVTVSSASTKGPSVFPLAPCSRSTSESTAALGCLVKDYFPEPVTVSWNSGALTSGVHTFPAVLQSSGLYSLSSVVTVPSSNFGTQTYTCNVDHKPSNTKVDKTVERKCCVECPPCPAPPAAAPSVFLFPPKPKDTLMISRTPEVTCVVVDVSHEDPEVQFNWYVDGVEVHNAKTKPREEQFNSTFRVVSVLTVVHQDWLNGKEYKCKVSNKGLPAPIEKTISKTKGQPREPQVYTLPPSREEMTKNQVSLTCLVKGFYPSDIAVEWESNGQPENNYKTTPPMLDSDGSFFLYSKLTVDKSRWQQGNVFSCSVMHEALHNHYTQKSLSLSPSK
light: DIQMTQSPSSLSASVGDRVTITCSASSSVSYMNWYQQKPGKAPKRLIYDTSKLASGVPSRFSGSGSGTDFTLTISSLQPEDFATYYCQQWSSNPPTFGGGTKVEIKRTVAAPSVFIFPPSDEQLKSGTASVVCLLNNFYPREAKVQWKVDNALQSGNSQESVTEQDSKDSTYSLSSTLTLSKADYEKHKVYACEVTHQGLSSPVTKSFNRGEC
notes: Humanized anti-CD3; also called HuM291-IgG2M3 WT; Nuvion
In the case of B4, in test [7], the “Relative Binding” value is 1 ratio. Besides, the IC50 in [8] was 42.2 µg/mL.

B5: HuM291-IgG2M3 T250Q/M428L (antibody)
heavy: B4 heavy with T249Q, M427L
light: B4 light
For the molecule B5, in test [7], the “Relative Binding” value turned out to be 42 ratio. In addition, in test [8], the half-maximal inhibitory concentration (IC50) worked out at 0.994 µg/mL.

B6: M200-IgG4 wild-type (volociximab) (antibody)
heavy: not shown
light: QIVLTQSPAIMSASLGERVTMTCTASSSVSSNYLHWYQQKPGSAPNLWIYSTSNLASGVPARFSGSGSGTSYSLTISSMEAEDAATYYCHQYLRSPPTFGGGTKLEIKRTVAAPSVFIFPPSDEQLKSGTASVVCLLNNFYPREAKVQWKVDNALQSGNSQESVTEQDSKDSTYSLSSTLTLSKADYEKHKVYACEVTHQGLSSPVTKSFNRGEC
notes: Chimeric anti-α5β1 integrin; also called M200-IgG4 WT
For the molecule B6, in [9], the “Relative Binding” value amounted to 1 ratio. Besides, in [10], the IC50 was 34.7 µg/mL.

B7: M200-IgG4 T250Q/M428L (antibody)
heavy: not shown
light: B6 light
With B7, the “Relative Binding” value in test [9] stood at 35 ratio. In addition, the IC50 in test [10] was determined as 1 µg/mL.

B8: Dac-IgG2M3 wild-type (antibody)
heavy: QVQLVQSGAEVKKPGSSVKVSCKASGYTFTSYRMHWVRQAPGQGLEWIGYINPSTGYTEYNQKFKDKATITADESTNTAYMELSSLRSEDTAVYYCARGGGVFDYWGQGTLVTVSSASTKGPSVFPLAPCSRSTSESTAALGCLVKDYFPEPVTVSWNSGALTSGVHTFPAVLQSSGLYSLSSVVTVPSSNFGTQTYTCNVDHKPSNTKVDKTVERKCCVECPPCPAPPAAAPSVFLFPPKPKDTLMISRTPEVTCVVVDVSHEDPEVQFNWYVDGVEVHNAKTKPREEQFNSTFRVVSVLTVVHQDWLNGKEYKCKVSNKGLPAPIEKTISKTKGQPREPQVYTLPPSREEMTKNQVSLTCLVKGFYPSDIAVEWESNGQPENNYKTTPPMLDSDGSFFLYSKLTVDKSRWQQGNVFSCSVMHEALHNHYTQKSLSLSPGK
light: DIQMTQSPSTLSASVGDRVTITCSASSSISYMHWYQQKPGKAPKLLIYTTSNLASGVPARFSGSGSGTEFTLTISSLQPDDFATYYCHQRSTYPLTFGQGTKVEVKRTVAAPSVFIFPPSDEQLKSGTASVVCLLNNFYPREAKVQWKVDNALQSGNSQESVTEQDSKDSTYSLSSTLTLSKADYEKHKVYACEVTHQGLSSPVTKSFNRGEC
notes: also called Dac-IgG2M3 WT
On to B8, for which, in [11], the “Relative Binding” value is 1 ratio. In addition, the IC50 in test [12] was determined as 71.4 µg/mL.

B9: Dac-IgG2M3 T250Q/M428L (antibody)
heavy: B8 heavy with T245Q, M423L
light: B8 light
With B9, the “Relative Binding” value in test [11] turned out to be 18 ratio. The IC50 in [12] came to 4.02 µg/mL.

B10: OST577-IgG1 T250D (antibody)
heavy: not shown
light: SYVLTQPPSVSVAPGQTARITCGGDNIGSKSVNWFQQKPGQAPVLVVYDDNERPSGISERFSGSNSGNTATLTISRVEAGDEADYYCQVWDSSSDHVVFGGGTKLTVLGQPKAAPSVTLFPPSSEELQANKATLVCLISDFYPGAVTVAWKADSSPVKAGVETTTPSKQSNNKYAASSYLSLTPEQWKSHRSYSCQVTHEGSTVEKTVAPTECS
Take B10: the binding result in test [13] is given as “binds”.
